Source: patent publication US20250320281A1

How the values were obtained:
Assay in all cases: cell-based or functional assay
[1] = target: HIV-1 Env of isolate MG RM-D-003 (HIV-1)
[2] = target: HIV-1 Env of isolate MGRM-A-008 (subtype A) (HIV-1)
[3] = target: HIV-1 Env of isolate MGRM-AG-013 (subtype AG) (HIV-1)
[4] = target: HIV-1 Env of isolate 93UG077 (HIV-1)
[5] = target: HIV-1 Env of isolate MGRM-A-012 (subtype A) (HIV-1)
[6] = target: HIV-1 Env of isolate JRCSF (subtype B) (HIV-1) (UniProt P20871)
[7] = target: HIV-1 Env of isolate MGRM-Chronic-B-003 (subtype B) (HIV-1)
[8] = target: HIV-1 Env of isolate MGRM-Chronic-B-020 (subtype B) (HIV-1)
[9] = target: HIV-1 Env of isolate MGRM-AE-008 (subtype AE) (HIV-1)
[10] = target: HIV-1 Env of isolate MGRM-Chronic-B-008 (subtype B) (HIV-1)
[11] = target: HIV-1 envelope glycoprotein (Env) of isolate MGRM-C-015 (HIV-1)
[12] = target: HIV-1 Env of isolate MGRM-AE-005 (subtype AE) (HIV-1)
[13] = target: HIV-1 Env of isolate MGRM-A-006 (HIV-1)
[14] = target: HIV-1 Env of isolate APV-13 (HIV-1)
[15] = target: HIV-1 Env of isolate CMU02 (subtype AE) (HIV-1)
[16] = target: HIV-1 Env of isolate MG RM-D-004 (HIV-1)
[17] = target: HIV-1 Env of isolate 94UG103 (HIV-1)
[18] = target: HIV-1 Env of isolate MGRM-C-005 (subtype C) (HIV-1)
[19] = target: HIV-1 Env of isolate 92UG024 (HIV-1)
[20] = target: HIV-1 JRFL Env (pseudovirus) (HIV-1)
[21] = target: HIV-1 MGRM-D-001 Env (pseudovirus) (HIV-1)
[22] = target: HIV-1 Env of isolate MGRM-D-024 (pseudovirus) (HIV-1)
[23] = target: HIV-1 Env of isolate MGRM-D-011 (pseudovirus) (HIV-1)
[24] = target: HIV-1 Env of isolate 97ZA012 (HIV-1)
[25] = target: HIV-1 Env of isolate MGRM-D-019 (pseudovirus) (HIV-1)
[26] = target: HIV-1 Env of isolate MGRM-D-016 (pseudovirus) (HIV-1)
[27] = target: HIV-1 Env of isolate MGRM-G-006 (HIV-1)

Chain of 4993_K13 (PGT-141) (antibody) (VH): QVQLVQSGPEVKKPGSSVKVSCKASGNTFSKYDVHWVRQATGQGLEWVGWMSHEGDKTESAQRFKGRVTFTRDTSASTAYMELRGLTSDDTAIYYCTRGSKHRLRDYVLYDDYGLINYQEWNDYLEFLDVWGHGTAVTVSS
Chain of 4993_K13 (PGT-141) (antibody) (VL): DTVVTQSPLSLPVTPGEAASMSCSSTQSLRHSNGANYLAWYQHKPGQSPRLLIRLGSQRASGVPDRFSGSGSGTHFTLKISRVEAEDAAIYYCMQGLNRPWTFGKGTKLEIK
Chain of 4980_N08 (PGT-143) (antibody) (VH): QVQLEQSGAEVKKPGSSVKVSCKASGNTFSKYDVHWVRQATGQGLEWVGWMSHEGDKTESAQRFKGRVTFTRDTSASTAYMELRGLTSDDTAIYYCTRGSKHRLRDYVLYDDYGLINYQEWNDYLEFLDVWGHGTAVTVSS
Chain of 4980_N08 (PGT-143) (antibody) (VL): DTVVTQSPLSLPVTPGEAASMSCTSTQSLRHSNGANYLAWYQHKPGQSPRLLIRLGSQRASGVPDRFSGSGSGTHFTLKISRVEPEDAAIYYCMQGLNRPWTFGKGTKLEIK

Row | Substance | IC50 (µg/mL), pseudovirus neutralization [12] [µg/mL] | IC50 (µg/mL), pseudovirus neutralization [15] [µg/mL] | neutralization IC50 (pseudovirus) [20] [µg/mL] | neutralization IC50 (pseudovirus) [21] [µg/mL] | IC50, pseudovirus neutralization [22] [µg/mL] | IC50, pseudovirus neutralization [23] [µg/mL] | neutralization IC50 [24] [µg/mL] | IC50, pseudovirus neutralization [25] [µg/mL] | IC50, pseudovirus neutralization [26] [µg/mL] | IC50 (neutralizing activity, pseudovirus) [20] [µg/mL] | IC50 (neutralizing activity, pseudovirus) [21] [µg/mL] | other results
1 | 5136_H01 (PGT-131) (antibody) | 0.017 | > 50 |  |  |  |  |  |  |  |  |  | IC50 (µg/mL), pseudovirus neutralization [1]: 19.6 µg/mL; IC50 (µg/mL), pseudovirus neutralization [2]: > 50 µg/mL; IC50 (µg/mL), pseudovirus neutralization [3]: 0.03 µg/mL; IC50 [4]: > 50 µg/mL; IC50 (µg/mL), pseudovirus neutralization [5]: > 50 µg/mL; IC50 neutralization [6]: 0.029 µg/mL; IC50 neutralization [7]: > 50 µg/mL; IC50 neutralization [8]: 0.053 µg/mL; IC50 (µg/mL), pseudovirus neutralization [9]: > 50 µg/mL; IC50 neutralization [10]: > 50 µg/mL; IC50 (µg/mL), pseudovirus neutralization [11]: 1.01 µg/mL; IC50 [13]: > 50 µg/mL; neutralization IC50 [14]: 0.189 µg/mL; IC50 (µg/mL), pseudovirus neutralization [16]: 2.01 µg/mL; IC50 [17]: 1.1 µg/mL; IC50 neutralization [18]: 1.36 µg/mL; IC50 (µg/mL), pseudovirus neutralization [19]: > 50 µg/mL
2 | 4858_P08 (PGT-123) (antibody) |  |  | 0.0283 | 0.215 | 0.023 | 0.012 | 0.002 | > 50 | > 50 |  |  | 
3 | 4980_N08 (PGT-143) (antibody) | > 50 | > 50 |  |  |  |  |  |  |  | > 10 | > 10 | IC50 (µg/mL), pseudovirus neutralization [27]: 0.031 µg/mL
4 | 4993_K13 (PGT-141) (antibody) | > 50 | > 50 |  |  |  |  |  |  |  | > 10 | > 10 | IC50 (µg/mL), pseudovirus neutralization [27]: 0.043 µg/mL
5 | 4877_D15 (PGT-122) (antibody) |  |  | 0.0471 | 0.867 | 0.185 | 0.019 | 0.004 | > 50 | > 50 |  |  | 
6 | 5145_B14 (PGT-127) (antibody) |  |  |  |  | 1.95 | 0.015 | > 50 | > 50 | > 50 |  |  | 
7 | 4838_L06 (PGT-121) (antibody) |  |  |  |  | 0.038 | 0.018 | 0.002 | > 50 | > 50 |  |  | 
8 | 5123_A06 (PGT-125) (antibody) |  |  | 0.0156 | 2.31 | > 50 | 0.008 | 2.46 | 0.049 | 0.12 |  |  | 
9 | 5343_B08 (PGT-135) (antibody) | > 50 | > 50 |  |  |  |  |  |  |  | > 10 | > 10 | IC50 (µg/mL), pseudovirus neutralization [1]: > 50 µg/mL; IC50 (µg/mL), pseudovirus neutralization [2]: > 50 µg/mL; IC50 (µg/mL), pseudovirus neutralization [3]: > 50 µg/mL; IC50 [4]: > 50 µg/mL; IC50 (µg/mL), pseudovirus neutralization [5]: > 50 µg/mL; IC50 neutralization [6]: 0.131 µg/mL; IC50 neutralization [7]: > 50 µg/mL; IC50 neutralization [8]: 0.057 µg/mL; IC50 (µg/mL), pseudovirus neutralization [9]: > 50 µg/mL; IC50 neutralization [10]: > 50 µg/mL; IC50 (µg/mL), pseudovirus neutralization [11]: 0.104 µg/mL; IC50 [13]: > 50 µg/mL; neutralization IC50 [14]: 0.716 µg/mL; IC50 (µg/mL), pseudovirus neutralization [16]: > 50 µg/mL; IC50 [17]: > 50 µg/mL; IC50 neutralization [18]: > 50 µg/mL; IC50 (µg/mL), pseudovirus neutralization [19]: 0.01 µg/mL
